The assay has as its target T1, human ciliary neurotrophic factor receptor alpha (hCNTFRα) (human, UniProt P26992 23-342).
T1 construct: human ciliary neurotrophic factor receptor alpha (hCNTFRα), bought protein; also called hCNTF receptor; source: bought: Sino Biologicals Inc
T1 sequence (looked up): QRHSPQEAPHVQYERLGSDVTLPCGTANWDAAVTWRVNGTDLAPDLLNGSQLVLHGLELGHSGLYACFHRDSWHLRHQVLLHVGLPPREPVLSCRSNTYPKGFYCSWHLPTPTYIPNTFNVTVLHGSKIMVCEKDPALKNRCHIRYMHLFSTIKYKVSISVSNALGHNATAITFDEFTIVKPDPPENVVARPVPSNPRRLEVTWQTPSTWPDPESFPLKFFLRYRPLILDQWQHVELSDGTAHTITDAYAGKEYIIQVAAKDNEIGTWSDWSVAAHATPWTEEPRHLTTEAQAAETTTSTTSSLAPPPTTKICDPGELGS
The assay is described as follows: ELISA; 1 μg hCNTFRα in PBS immobilised on Nunc MaxiSorp 96-well plate; blocked with 2% BSA in TBS-T; biotinylated CNTF 0.2 – 3.0 μg added, room temperature 2 h; detected with HRP-conjugated streptavidin and TMB, OD 450 nm. To be noted: both partners purified.

B1: recombinant 6-His-hCNTF (human ciliary neurotrophic factor), biotinylated (ligand, UniProt P26441 1-200, looked up)
chain: MAFTEHSPLTPHRRDLCSRSIWLARKIRSDLTALTESYVKHQGLNKNINLDSADGMPVASTDQWSELTEAERLQENLQAYRTFHVLLARLLEDQQVHFTPTEGDFHQAIHTLLLQVAAFAYQIEELMILLEYKIPRNEADGMPINVGDGGLFEKKLWGLKVLQELSQWTVRSIHDLRFISSHQTGIPARGSHYIANNKKM
modifications: biotin (reacted with a 20-fold molar excess of NHS-PEG4-biotin; sites not stated)
notes: Rhinovirus 3C protease cleavage site between the tag and the insert; No cleavage of the 6-His tag is described; also called biotinylated hCNTF; biotinylated CNTF; source: E. coli Rosetta 2(DE3)pLysS, TBONEX 25°C, purified (Ni-IDA, SEC)
Molecule B1 had an EC50 of 36 nM.

(Values after publication PMC4237735, “Codon optimization and factorial screening for enhanced soluble expression of human ciliary neurotrophic factor in Escherichia coli” (BMC Biotechnology, 2014).)
